The text below walks through data of PMC5505701, “Somatostatin binds to the human amyloid β peptide and favors the formation of distinct oligomers” (eLife, 2017).

The subject of experiment [1] is oligomeric versus monomeric Aβ1-42 (Aβ1-42-biotin bait). The experiment is described as follows: Affinity capture interactome Experiment III (oAβ1-42-biotin vs mAβ1-42-biotin). The note with it: oligomeric versus monomeric bait; human frontal lobe digitonin extract; TMT; pH 8.0, 4°C overnight.
The subject of experiment [2] is oligomeric Aβ1-42 (oAβ1-42-biotin bait). In words: Affinity capture interactome Experiment II (C-terminally tethered oAβ1-42-biotin vs biotin). The note with it: enrichment relative to biotin-only negative control; human frontal lobe digitonin extract; TMT; pH 8.0, 4°C overnight.

B1: Centractin, beta: human brain protein (protein, UniProt P42025 1-376, looked up)
Beta-centractin: MESYDIIANQPVVIDNGSGVIKAGFAGDQIPKYCFPNYVGRPKHMRVMAGALEGDLFIGPKAEEHRGLLTIRYPMEHGVVRDWNDMERIWQYVYSKDQLQTFSEEHPVLLTEAPLNPSKNREKAAEVFFETFNVPALFISMQAVLSLYATGRTTGVVLDSGDGVTHAVPIYEGFAMPHSIMRVDIAGRDVSRYLRLLLRKEGVDFHTSAEFEVVRTIKERACYLSINPQKDEALETEKVQYTLPDGSTLDVGPARFRAPELLFQPDLVGDESEGLHEVVAFAIHKSDMDLRRTLFANIVLSGGSTLFKGFGDRLLSEVKKLAPKDIKIKISAPQERLYSTWIGGSILASLDTFKKMWVSKKEYEEDGSRAIHRKTF
B1: in experiment [1], the “Experiment III oAβ1-42-B/mAβ1-42-B Ratio” value turned out to be 3.25.

B2: ATP synthase subunit gamma, mitochondrial: human brain protein (protein, UniProt P36542 26-298, looked up)
ATP synthase F(1) complex …: ATLKDITRRLKSIKNIQKITKSMKMVAAAKYARAERELKPARIYGLGSLALYEKADIKGPEDKKKHLLIGVSSDRGLCGAIHSSIAKQMKSEVATLTAAGKEVMLVGIGDKIRGILYRTHSDQFLVAFKEVGRKPPTFGDASVIALELLNSGYEFDEGSIIFNKFRSVISYKTEEKPIFSLNTVASADSMSIYDDIDADVLQNYQEYNLANIIYYSLKESTTSEQSARMTAMDNASKNASEMIDKLTLTFNRTRQAVITKELIEIISGAAALD
On to B2, for which, in experiment [1], the “Experiment III oAβ1-42-B/mAβ1-42-B Ratio” value came to 3.29.

B3: NAD-dependent deacetylase sirtuin-2: human brain protein (protein, UniProt Q8IXJ6 2-389, looked up)
NAD-dependent protein …: AEPDPSHPLETQAGKVQEAQDSDSDSEGGAAGGEADMDFLRNLFSQTLSLGSQKERLLDELTLEGVARYMQSERCRRVICLVGAGISTSAGIPDFRSPSTGLYDNLEKYHLPYPEAIFEISYFKKHPEPFFALAKELYPGQFKPTICHYFMRLLKDKGLLLRCYTQNIDTLERIAGLEQEDLVEAHGTFYTSHCVSASCRHEYPLSWMKEKIFSEVTPKCEDCQSLVKPDIVFFGESLPARFFSCMQSDFLKVDLLLVMGTSLQVQPFASLISKAPLSTPRLLINKEKAGQSDPFLGMIMGLGGGMDFDSKKAYRDVAWLGECDQGCLALAELLGWKKELEDLVRREHASIDAQSGAGVPNPSTSASPKKSPPPAKDEARTTEREKPQ
For the molecule B3, the “Experiment III oAβ1-42-B/mAβ1-42-B Ratio” value in experiment [1] is given as 2.58.

B4: Mu-crystallin homolog: human brain protein (protein, UniProt Q14894 1-314, looked up)
Ketimine reductase …: MSRVPAFLSAAEVEEHLRSSSLLIPPLETALANFSSGPEGGVMQPVRTVVPVTKHRGYLGVMPAYSAAEDALTTKLVTFYEDRGITSVVPSHQATVLLFEPSNGTLLAVMDGNVITAKRTAAVSAIATKFLKPPSSEVLCILGAGVQAYSHYEIFTEQFSFKEVRIWNRTKENAEKFADTVQGEVRVCSSVQEAVAGADVIITVTLATEPILFGEWVKPGAHINAVGASRPDWRELDDELMKEAVLYVDSQEAALKESGDVLLSGAEIFAELGEVIKGVKPAHCEKTTVFKSLGMAVEDTVAAKLIYDSWSSGK
As for B4, the “Experiment III oAβ1-42-B/mAβ1-42-B Ratio” value in experiment [1] is 2.41.

B5: Medium-chain specific acyl-CoA dehydrogenase: human brain protein (protein, UniProt P11310 26-421, looked up)
Medium-chain specific …: KANRQREPGLGFSFEFTEQQKEFQATARKFAREEIIPVAAEYDKTGEYPVPLIRRAWELGLMNTHIPENCGGLGLGTFDACLISEELAYGCTGVQTAIEGNSLGQMPIIIAGNDQQKKKYLGRMTEEPLMCAYCVTEPGAGSDVAGIKTKAEKKGDEYIINGQKMWITNGGKANWYFLLARSDPDPKAPANKAFTGFIVEADTPGIQIGRKELNMGQRCSDTRGIVFEDVKVPKENVLIGDGAGFKVAMGAFDKTRPVVAAGAVGLAQRALDEATKYALERKTFGKLLVEHQAISFMLAEMAMKVELARMSYQRAAWEVDSGRRNTYYASIAKAFAGDIANQLATDAVQILGGNGFNTEYPVEKLMRDAKIYQIYEGTSQIQRLIVAREHIDKYKN
On to B5, for which the “Experiment III oAβ1-42-B/mAβ1-42-B Ratio” value in experiment [1] came out at 1.82.

B6: Ubiquitin carboxyl-terminal hydrolase L1: human brain protein (protein, UniProt P09936 1-220, looked up)
Ubiquitin carboxyl-terminal …: MQLKPMEINPEMLNKVLSRLGVAGQWRFVDVLGLEEESLGSVPAPACALLLLFPLTAQHENFRKKQIEELKGQEVSPKVYFMKQTIGNSCGTIGLIHAVANNQDKLGFEDGSVLKQFLSETEKMSPEDRAKCFEKNEAIQAAHDAVAQEGQCRVDDKVNFHFILFNNVDGHLYELDGRMPFPVNHGASSEDTLLKDAAKVCREFTEREQGEVRFSAVALC
Consider B6, for which the “Experiment II oAβ1-42-B/B Ratio” value in experiment [2] was determined as 1.87. For the same molecule, in experiment [1], the “Experiment III oAβ1-42-B/mAβ1-42-B Ratio” value was 1.39.

B7: Cytosolic acyl CoA thioester hydrolase: human brain protein (protein, UniProt O00154 1-380, looked up)
Cytosolic acyl coenzyme A …: MKLLARALRLCEFGRQASSRRLVAGQGCVGPRRGCCAPVQVVGPRADLPPCGACITGRIMRPDDANVAGNVHGGTILKMIEEAGAIISTRHCNSQNGERCVAALARVERTDFLSPMCIGEVAHVSAEITYTSKHSVEVQVNVMSENILTGAKKLTNKATLWYVPLSLKNVDKVLEVPPVVYSRQEQEEEGRKRYEAQKLERMETKWRNGDIVQPVLNPEPNTVSYSQSSLIHLVGPSDCTLHGFVHGGVTMKLMDEVAGIVAARHCKTNIVTASVDAINFHDKIRKGCVITISGRMTFTSNKSMEIEVLVDADPVVDSSQKRYRAASAFFTYVSLSQEGRSLPVPQLVPETEDEKKRFEEGKGRYLQMKAKRQGHAEPQP
Consider B7, for which, in experiment [1], the “Experiment III oAβ1-42-B/mAβ1-42-B Ratio” value worked out at 4.03.

B8: Phosphoglycerate kinase 1: human brain protein (protein, UniProt P00558 2-417, looked up)
Phosphoglycerate kinase 1: SLSNKLTLDKLDVKGKRVVMRVDFNVPMKNNQITNNQRIKAAVPSIKFCLDNGAKSVVLMSHLGRPDGVPMPDKYSLEPVAVELKSLLGKDVLFLKDCVGPEVEKACANPAAGSVILLENLRFHVEEEGKGKDASGNKVKAEPAKIEAFRASLSKLGDVYVNDAFGTAHRAHSSMVGVNLPQKAGGFLMKKELNYFAKALESPERPFLAILGGAKVADKIQLINNMLDKVNEMIIGGGMAFTFLKVLNNMEIGTSLFDEEGAKIVKDLMSKAEKNGVKITLPVDFVTADKFDENAKTGQATVASGIPAGWMGLDCGPESSKKYAEAVTRAKQIVWNGPVGVFEWEAFARGTKALMDEVVKATSRGCITIIGGGDTATCCAKWNTEDKVSHVSTGGGASLELLEGKVLPGVDALSNI
Consider B8, for which the “Experiment II oAβ1-42-B/B Ratio” value in experiment [2] was found to be 1.38. The “Experiment III oAβ1-42-B/mAβ1-42-B Ratio” value in experiment [1] came out at 1.73.

B9: Peroxiredoxin-2: human brain protein (protein, UniProt P32119 2-198, looked up)
Peroxiredoxin-2: ASGNARIGKPAPDFKATAVVDGAFKEVKLSDYKGKYVVLFFYPLDFTFVCPTEIIAFSNRAEDFRKLGCEVLGVSVDSQFTHLAWINTPRKEGGLGPLNIPLLADVTRRLSEDYGVLKTDEGIAYRGLFIIDGKGVLRQITVNDLPVGRSVDEALRLVQAFQYTDEHGEVCPAGWKPGSDTIKPNVDDSKEYFSKHN
Turning to B9, the “Experiment II oAβ1-42-B/B Ratio” value in experiment [2] turned out to be 1.51. Besides, the “Experiment III oAβ1-42-B/mAβ1-42-B Ratio” value in experiment [1] came out at 2.40.

B10: Dihydropyrimidinase-related protein 5: human brain protein (protein, UniProt Q9BPU6 1-564, looked up)
Dihydropyrimidinase-related …: MLANSASVRILIKGGKVVNDDCTHEADVYIENGIIQQVGRELMIPGGAKVIDATGKLVIPGGIDTSTHFHQTFMNATCVDDFYHGTKAALVGGTTMIIGHVLPDKETSLVDAYEKCRGLADPKVCCDYALHVGITWWAPKVKAEMETLVREKGVNSFQMFMTYKDLYMLRDSELYQVLHACKDIGAIARVHAENGELVAEGAKEALDLGITGPEGIEISRPEELEAEATHRVITIANRTHCPIYLVNVSSISAGDVIAAAKMQGKVVLAETTTAHATLTGLHYYHQDWSHAAAYVTVPPLRLDTNTSTYLMSLLANDTLNIVASDHRPFTTKQKAMGKEDFTKIPHGVSGVQDRMSVIWERGVVGGKMDENRFVAVTSSNAAKLLNLYPRKGRIIPGADADVVVWDPEATKTISASTQVQGGDFNLYENMRCHGVPLVTISRGRVVYENGVFMCAEGTGKFCPLRSFPDTVYKKLVQREKTLKVRGVDRTPYLGDVAVVVHPGKKEMGTPLADTPTRPVTRHGGMRDLHESSFSLSGSQIDDHVPKRASARILAPPGGRSSGIW
On to B10, for which the “Experiment III oAβ1-42-B/mAβ1-42-B Ratio” value in experiment [1] is on record as 3.79.

B11: Peroxiredoxin-6: human brain protein (protein, UniProt P30041 2-224, looked up)
Peroxiredoxin-6: PGGLLLGDVAPNFEANTTVGRIRFHDFLGDSWGILFSHPRDFTPVCTTELGRAAKLAPEFAKRNVKLIALSIDSVEDHLAWSKDINAYNCEEPTEKLPFPIIDDRNRELAILLGMLDPAEKDEKGMPVTARVVFVFGPDKKLKLSILYPATTGRNFDEILRVVISLQLTAEKRVATPVDWKDGDSVMVLPTIPEEEAKKLFPKGVFTKELPSGKKYLRYTPQP
Turning to B11, in experiment [2], the “Experiment II oAβ1-42-B/B Ratio” value stood at 1.42. The “Experiment III oAβ1-42-B/mAβ1-42-B Ratio” value in experiment [1] was 1.54.

B12: Tryptophanyl-tRNA synthetase, cytoplasmic: human brain protein (protein, UniProt P23381 2-471, looked up)
Tryptophan--tRNA ligase, …: PNSEPASLLELFNSIATQGELVRSLKAGNASKDEIDSAVKMLVSLKMSYKAAAGEDYKADCPPGNPAPTSNHGPDATEAEEDFVDPWTVQTSSAKGIDYDKLIVRFGSSKIDKELINRIERATGQRPHHFLRRGIFFSHRDMNQVLDAYENKKPFYLYTGRGPSSEAMHVGHLIPFIFTKWLQDVFNVPLVIQMTDDEKYLWKDLTLDQAYSYAVENAKDIIACGFDINKTFIFSDLDYMGMSSGFYKNVVKIQKHVTFNQVKGIFGFTDSDCIGKISFPAIQAAPSFSNSFPQIFRDRTDIQCLIPCAIDQDPYFRMTRDVAPRIGYPKPALLHSTFFPALQGAQTKMSASDPNSSIFLTDTAKQIKTKVNKHAFSGGRDTIEEHRQFGGNCDVDVSFMYLTFFLEDDDKLEQIRKDYTSGAMLTGELKKALIEVLQPLIAEHQARRKEVTDEIVKEFMTPRKLSFDFQ
For B12, the “Experiment III oAβ1-42-B/mAβ1-42-B Ratio” value in experiment [1] worked out at 3.97.
